Numbering of substitutions follows the chain as printed. Names may count otherwise. Like-named read-outs stand apart in the source and are kept apart here. Values belong to the molecule of their own block, whether it stands above or below them.
Experiments:
[1] = target: VWF (plastic-immobilized) (Homo sapiens) (UniProt P04275); details: cited from earlier work
[2] = target: VWF (antibody-immobilized) (Homo sapiens) (UniProt P04275); details: cited from earlier work
[3] = target: Purified recombinant von Willebrand factor (UniProt P04275); assay: co-IP + ELISA
[4] = target: Endogenous von Willebrand factor of normal human plasma (human (endogenous in normal human …, UniProt P04275 764-2813)); assay: co-IP + ELISA
[5] = target: T1, Purified recombinant von Willebrand factor (UniProt P04275 764-2813); assay: co-IP + ELISA
[6] = target: T1, Purified recombinant von Willebrand …; assay: co-IP + ELISA; remark: listed apart in the source

Molecule: ADAMTS13 (from UniProt Q76LX8)
Kd [1]: 14 nM
Kd [2]: 90 nM

Kd [3]: 100 nM
Molecule: Human recombinant ADAMTS13 truncated after the eighth TSR (domain or fragment)

stoichiometry N [4]: 0.004 ADAMTS13 per VWF (molar ratio)
B1: Endogenous ADAMTS13 of normal human plasma (enzyme, UniProt Q76LX8 75-1427, looked up)
chain: AAGGILHLELLVAVGPDVFQAHQEDTERYVLTNLNIGAELLRDPSLGAQFRVHLVKMVILTEPEGAPNITANLTSSLLSVCGWSQTINPEDDTDPGHADLVLYITRFDLELPDGNRQVRGVTQLGGACSPTWSCLITEDTGFDLGVTIAHEIGHSFGLEHDGAPGSGCGPSGHVMASDGAAPRAGLAWSPCSRRQLLSLLSAGRARCVWDPPRPQPGSAGHPPDAQPGLYYSANEQCRVAFGPKAVACTFAREHLDMCQALSCHTDPLDQSSCSRLLVPLLDGTECGVEKWCSKGRCRSLVELTPIAAVHGRWSSWGPRSPCSRSCGGGVVTRRRQCNNPRPAFGGRACVGADLQAEMCNTQACEKTQLEFMSQQCARTDGQPLRSSPGGASFYHWGAAVPHSQGDALCRHMCRAIGESFIMKRGDSFLDGTRCMPSGPREDGTLSLCVSGSCRTFGCDGRMDSQQVWDRCQVCGGDNSTCSPRKGSFTAGRAREYVTFLTVTPNLTSVYIANHRPLFTHLAVRIGGRYVVAGKMSISPNTTYPSLLEDGRVEYRVALTEDRLPRLEEIRIWGPLQEDADIQVYRRYGEEYGNLTRPDITFTYFQPKPRQAWVWAAVRGPCSVSCGAGLRWVNYSCLDQARKELVETVQCQGSQQPPAWPEACVLEPCPPYWAVGDFGPCSASCGGGLRERPVRCVEAQGSLLKTLPPARCRAGAQQPAVALETCNPQPCPARWEVSEPSSCTSAGGAGLALENETCVPGADGLEAPVTEGPGSVDEKLPAPEPCVGMSCPPGWGHLDATSAGEKAPSPWGSIRTGAQAAHVWTPAAGSCSVSCGRGLMELRFLCMDSALRVPVQEELCGLASKPGSRREVCQAVPCPARWQYKLAACSVSCGRGVVRRILYCARAHGEDDGEEILLDTQCQGLPRPEPQEACSLEPCPPRWKVMSLGPCSASCGLGTARRSVACVQLDQGQDVEVDEAACAALVRPEASVPCLIADCTYRWHVGTWMECSVSCGDGIQRRRDTCLGPQAQAPVPADFCQHLPKPVTVRGCWAGPCVGQGTPSLVPHEEAAAPGRTTATPAGASLEWSQARGLLFSPAPQPRRLLPGPQENSVQSSACGRQHLEPTGTIDMRGPGQADCAVAIGRPLGEVVTLRVLESSLNCSAGDMLLLWGRLTWRKMCRKLLDMTFSSKTNTLVVRQRCGRPGGGVLLRYGSQLAPETFYRECDMQLFGPWGEIVSPSLSPATSNAGGCRLFINVAPHARIAIHALATNMGAGTEGANASYILIRDTHSLRTTAFHGQQVLYWESESSQAEMEFSEGFLKAQASLRGQYWTLQSWVPEMQDPQSWKGKEGT

Kd [5]: > 500 nM
Kd [6]: 79 nM
B2: Human recombinant ADAMTS13 with the active site mutation E225Q (enzyme, UniProt Q76LX8 75-1427, looked up)
chain: B1 chain with E151Q

Reference: publication PMC3863616 (Journal of thrombosis and haemostasis : JTH, 2009)
